Residue numbers refer to the chain shown, from its start. In names and notes the source's numbering stands.
B1: G86H: PYR1 mutant (protein, UniProt O49686 1-191, looked up, variant G86H)
Abscisic acid receptor PYR1: MPSELTPEERSELKNSIAEFHTYQLDPGSCSSLHAQRIHAPPELVWSIVRRFDKPQTYKHFIKSCSVEQNFEMRVGCTRDVIVISHLPANTSTERLDILDDERRVTGFSIIGGEHRLTNYKSVTTVHRFEKENRIWTVVLESYVVDMPEGNSEDDTRMFADTVVKLNLQKLATVAEAMARNSGDGSGSQVT
B2: A89R: PYR1 mutant (protein, UniProt O49686 1-191, looked up, variant A89R)
Abscisic acid receptor PYR1: B1 Abscisic acid receptor PYR1 with H86G, A89R
B3: P88T: PYR1 mutant (protein, UniProt O49686 1-191, looked up, variant P88T)
Abscisic acid receptor PYR1: B1 Abscisic acid receptor PYR1 with H86G, P88T
B4: P88E: PYR1 mutant (protein, UniProt O49686 1-191, looked up, variant P88E)
Abscisic acid receptor PYR1: B1 Abscisic acid receptor PYR1 with H86G, P88E
B5: P88R: PYR1 mutant (protein, UniProt O49686 1-191, looked up, variant P88R)
Abscisic acid receptor PYR1: B1 Abscisic acid receptor PYR1 with H86G, P88R
B6: P88Y: PYR1 mutant (protein, UniProt O49686 1-191, looked up, variant P88Y)
Abscisic acid receptor PYR1: B1 Abscisic acid receptor PYR1 with H86G, P88Y
B7: P88Q: PYR1 mutant (protein, UniProt O49686 1-191, looked up, variant P88Q)
Abscisic acid receptor PYR1: B1 Abscisic acid receptor PYR1 with H86G, P88Q
B8: A89N: PYR1 mutant (protein, UniProt O49686 1-191, looked up, variant A89N)
Abscisic acid receptor PYR1: B1 Abscisic acid receptor PYR1 with H86G, A89N
B9: P88C: PYR1 mutant (protein, UniProt O49686 1-191, looked up, variant P88C)
Abscisic acid receptor PYR1: B1 Abscisic acid receptor PYR1 with H86G, P88C
B10: P88H: PYR1 mutant (protein, UniProt O49686 1-191, looked up, variant P88H)
Abscisic acid receptor PYR1: B1 Abscisic acid receptor PYR1 with H86G, P88H
B11: L87Y: PYR1 mutant (protein, UniProt O49686 1-191, looked up, variant L87Y)
Abscisic acid receptor PYR1: B1 Abscisic acid receptor PYR1 with H86G, L87Y
B12: A89Q: PYR1 mutant (protein, UniProt O49686 1-191, looked up, variant A89Q)
Abscisic acid receptor PYR1: B1 Abscisic acid receptor PYR1 with H86G, A89Q
B13: P88W: PYR1 mutant (protein, UniProt O49686 1-191, looked up, variant P88W)
Abscisic acid receptor PYR1: B1 Abscisic acid receptor PYR1 with H86G, P88W
B14: G86I: PYR1 mutant (protein, UniProt O49686 1-191, looked up, variant G86I)
Abscisic acid receptor PYR1: B1 Abscisic acid receptor PYR1 with H86I
B15: L87G: PYR1 mutant (protein, UniProt O49686 1-191, looked up, variant L87G)
Abscisic acid receptor PYR1: B1 Abscisic acid receptor PYR1 with H86G, L87G
B16: P88S: PYR1 mutant (protein, UniProt O49686 1-191, looked up, variant P88S)
Abscisic acid receptor PYR1: B1 Abscisic acid receptor PYR1 with H86G, P88S
B17: P88I: PYR1 mutant (protein, UniProt O49686 1-191, looked up, variant P88I)
Abscisic acid receptor PYR1: B1 Abscisic acid receptor PYR1 with H86G, P88I
B18: L87S: PYR1 mutant (protein, UniProt O49686 1-191, looked up, variant L87S)
Abscisic acid receptor PYR1: B1 Abscisic acid receptor PYR1 with H86G, L87S
B19: L87T: PYR1 mutant (protein, UniProt O49686 1-191, looked up, variant L87T)
Abscisic acid receptor PYR1: B1 Abscisic acid receptor PYR1 with H86G, L87T
B20: L87D: PYR1 mutant (protein, UniProt O49686 1-191, looked up, variant L87D)
Abscisic acid receptor PYR1: B1 Abscisic acid receptor PYR1 with H86G, L87D
B21: L87R: PYR1 mutant (protein, UniProt O49686 1-191, looked up, variant L87R)
Abscisic acid receptor PYR1: B1 Abscisic acid receptor PYR1 with H86G, L87R
B22: A89M: PYR1 mutant (protein, UniProt O49686 1-191, looked up, variant A89M)
Abscisic acid receptor PYR1: B1 Abscisic acid receptor PYR1 with H86G, A89M
B23: L87K: PYR1 mutant (protein, UniProt O49686 1-191, looked up, variant L87K)
Abscisic acid receptor PYR1: B1 Abscisic acid receptor PYR1 with H86G, L87K
B24: L87C: PYR1 mutant (protein, UniProt O49686 1-191, looked up, variant L87C)
Abscisic acid receptor PYR1: B1 Abscisic acid receptor PYR1 with H86G, L87C
B25: A89P: PYR1 mutant (protein, UniProt O49686 1-191, looked up, variant A89P)
Abscisic acid receptor PYR1: B1 Abscisic acid receptor PYR1 with H86G, A89P
B26: P88M: PYR1 mutant (protein, UniProt O49686 1-191, looked up, variant P88M)
Abscisic acid receptor PYR1: B1 Abscisic acid receptor PYR1 with H86G, P88M
B27: L87W: PYR1 mutant (protein, UniProt O49686 1-191, looked up, variant L87W)
Abscisic acid receptor PYR1: B1 Abscisic acid receptor PYR1 with H86G, L87W
B28: P88D: PYR1 mutant (protein, UniProt O49686 1-191, looked up, variant P88D)
Abscisic acid receptor PYR1: B1 Abscisic acid receptor PYR1 with H86G, P88D
B29: P88F: PYR1 mutant (protein, UniProt O49686 1-191, looked up, variant P88F)
Abscisic acid receptor PYR1: B1 Abscisic acid receptor PYR1 with H86G, P88F
B30: L87A: PYR1 mutant (protein, UniProt O49686 1-191, looked up, variant L87A)
Abscisic acid receptor PYR1: B1 Abscisic acid receptor PYR1 with H86G, L87A
B31: G86K: PYR1 mutant (protein, UniProt O49686 1-191, looked up, variant G86K)
Abscisic acid receptor PYR1: B1 Abscisic acid receptor PYR1 with H86K
B32: P88N: PYR1 mutant (protein, UniProt O49686 1-191, looked up, variant P88N)
Abscisic acid receptor PYR1: B1 Abscisic acid receptor PYR1 with H86G, P88N
B33: P88V: PYR1 mutant (protein, UniProt O49686 1-191, looked up, variant P88V)
Abscisic acid receptor PYR1: B1 Abscisic acid receptor PYR1 with H86G, P88V
B34: P88G: PYR1 mutant (protein, UniProt O49686 1-191, looked up, variant P88G)
Abscisic acid receptor PYR1: B1 Abscisic acid receptor PYR1 with H86G, P88G
B35: P88L: PYR1 mutant (protein, UniProt O49686 1-191, looked up, variant P88L)
Abscisic acid receptor PYR1: B1 Abscisic acid receptor PYR1 with H86G, P88L
B36: A89L: PYR1 mutant (protein, UniProt O49686 1-191, looked up, variant A89L)
Abscisic acid receptor PYR1: B1 Abscisic acid receptor PYR1 with H86G, A89L
B37: L87E: PYR1 mutant (protein, UniProt O49686 1-191, looked up, variant L87E)
Abscisic acid receptor PYR1: B1 Abscisic acid receptor PYR1 with H86G, L87E
B38: L87H: PYR1 mutant (protein, UniProt O49686 1-191, looked up, variant L87H)
Abscisic acid receptor PYR1: B1 Abscisic acid receptor PYR1 with H86G, L87H
B39: L87N: PYR1 mutant (protein, UniProt O49686 1-191, looked up, variant L87N)
Abscisic acid receptor PYR1: B1 Abscisic acid receptor PYR1 with H86G, L87N
B40: P88K: PYR1 mutant (protein, UniProt O49686 1-191, looked up, variant P88K)
Abscisic acid receptor PYR1: B1 Abscisic acid receptor PYR1 with H86G, P88K
B41: L87Q: PYR1 mutant (protein, UniProt O49686 1-191, looked up, variant L87Q)
Abscisic acid receptor PYR1: B1 Abscisic acid receptor PYR1 with H86G, L87Q

Test system: HAB1
Assay: Yeast two hybrid of pBD-PYR1 site saturation mutants with pACT-HAB1 on 10 μM ABA, β-galactosidase staining
Assay type: cell-based, Arabidopsis
Design: key: x: Mutations in PYR1 that disrupt ABA-induced binding to PYR1 to HAB1
Settings: S. cerevisiae Y190, 10 μM ABA; dead = lack of visible staining in comparison to wild type control
Description: To systematically identify mutations in PYR1 that disrupt its binding to HAB1, we utilized a collection of saturating mutations that contain all possible single amino acid substitutions in 24 conserved interface residues involved in binding HAB1, which was previously constructed for the purpose of engineering constitutively active ABA receptor variants (Mosquna et al., 2011). The interface residues previously mutagenized in this collection are the following: H60, F61, I62, K63, I84, S85, G86, L87, P88, A89, H115, R116, L117, P148, G150, N151, D154, D155, T156, M158, F159, T162, L166, K170. This set was made by mutagenizing a pBD-PYR1 template that encodes a GAL4-DNA binding domain fusion to PYR1, which can be used to assess receptor-HAB1 binding in S. cerevisiae strains co-transformed with pACT-HAB1, which expresses a GAL4 activation domain fusion to HAB1. Mutant pBD-PYR1 clones from the collection are maintained in S. cerevisiae strain Y190 co-transformed with pACT-HAB1. The test strains were spotted onto agar plates containing synthetic dextrose dropout media lacking leucine and tryptophan [SD (-Leu, -Trp)] medium supplemented with 10 μM ABA. After incubating the test plates at 30° C. for two days, colonies were chloroform lysed and stained to reveal […] expression levels and “dead” mutants were defined by lack of visible staining in comparison to a wild type control. This effort defined 237 mutations that disrupt ABA-induced binding of PYR1 to HAB1 (Table 1). Premade yeast drop out supplements (Clontech) were utilized in this and other examples for media preparation, amino acids and other standard chemicals were purchased from Sigma-Aldrich (USA). The naturally occurring (+)-ABA isomer was used in all experiments and purchased from Biosynth Ag (Switzerland).

| Mutations in PYR1 that disrupt ABA-induced binding to PYR1 to HAB1 | Molecule |
| --- | --- |
| x | B1 |
| x | B2 |
| x | B3 |
| x | B4 |
| x | B5 |
| x | B6 |
| x | B7 |
| x | B8 |
| x | B9 |
| x | B10 |
| x | B11 |
| x | B12 |
| x | B13 |
| x | B14 |
| x | B15 |
| x | B16 |
| x | B17 |
| x | B18 |
| x | B19 |
| x | B20 |
| x | B21 |

| Mutations in PYR1 that disrupt ABA-induced binding to PYR1 to HAB1 | Molecule |
| --- | --- |
| x | B22 |
| x | B23 |
| x | B24 |
| x | B25 |
| x | B26 |
| x | B27 |
| x | B28 |
| x | B29 |
| x | B30 |
| x | B31 |
| x | B32 |
| x | B33 |
| x | B34 |
| x | B35 |
| x | B36 |
| x | B37 |
| x | B38 |
| x | B39 |
| x | B40 |
| x | B41 |
